# B1: 2K2A (parent)
# chain: ELREAFRLYDKEGNGYISTDVMREILAELDETLSSEDLDAMIDEIDADGSGTVDFEEFMGVMT
# Variants of: B1
# Assay: folding stability dG (cDNA display proteolysis); higher = more stable
# Conditions: PBS, room temperature
row,Variant,folding stability dG [kcal/mol]
1,ELREAFRLYDKEGNGYISTDVMREILAELDETLSSEDLDAMIDEIDADGSGTVDFEEFMGVKT [M62K],0.674
2,ELREAFRLYDKEGNGYISTDVMREILAELDETLSSEDLDAMIDETDADGSGTVDFEEFMGVMT [I45T],0.714
3,ELLEAFRLYDKEGNGYISTDVMREILAELDETLSSEDLDAMIDEIDADGSGTVDFEEFMGVMT [R3L],2.2
4,ELREAFRLYDKEGNGYISTDVMREILAELDETLSSEDLDAMIDEIDADGSWTVDFEEFMGVMT [G51W],0.564
5,ELREAFRLYDKEGNGYISTDVMREILAELDETLSSEDLDAMIDEIDADGSQTVDFEEFMGVMT [G51Q],1.01
6,NLREAFRLYDKEGNGYISTDVMREILAELDETLSSEDLDAMIDEIDADGSGTVDFEEFMGVMT [E1N],2.25
7,ELREAFRLYDKEGNGYISTDVMREILAEGDETLSSEDLDAMIDEIDADGSGTVDFEEFMGVMT [L29G],0.955
8,ELREAFRLYDKEGNGYISTDVMREILAEKDETLSSEDLDAMIDEIDADGSGTVDFEEFMGVMT [L29K],1.52
9,ELREAFRLYDKEGNGYISTDVMREILAEEDETLSSEDLDAMIDEIDADGSGTVDFEEFMGVMT [L29E],0.559
10,ELREAFRLYDKEGNGYISTDVMREILAELDETLDSEDLDAMIDEIDADGSGTVDFEEFMGVMT [S34D],1.3
11,ELREAFRLYDKEGNGYISTDVMREILAELDETLNSEDLDAMIDEIDADGSGTVDFEEFMGVMT [S34N],1.58
12,ELREAFRLYDKEGNGYISTDVMREILAELDETLCSEDLDAMIDEIDADGSGTVDFEEFMGVMT [S34C],1.2
13,ELREAFRLYDKEGNGYISTDVMREILAELDETLPSEDLDAMIDEIDADGSGTVDFEEFMGVMT [S34P],0.476
14,ELREAFRLYDKEGNGYISTDVMREILAELDETLSSEDLDAMIDEIDADGSGKVDFEEFMGVMT [T52K],1.74
15,EKREAFRLYDKEGNGYISTDVMREILAELDETLSSEDLDAMIDEIDADGSGTVDFEEFMGVMT [L2K],0.383
16,ELREAFRLYDKEGNGYISTDVMREILAELDETLSSEDLDAMIDEIDADGAGTVDFEEFMGVMT [S50A],1.11
17,ELREAFRLYDKEGNGYISTDVMREILAELDETPSSEDLDAMIDEIDADGSGTVDFEEFMGVMT [L33P],-0.18
18,ELREAFRLYDKEGNGYISTDVMREILAELDETCSSEDLDAMIDEIDADGSGTVDFEEFMGVMT [L33C],1.07
19,ELREAFRLYDKEGNGYISTDVMREILAELDETLSSEDLDAMIDHIDADGSGTVDFEEFMGVMT [E44H],2.06
20,ELREAFRLYDKEGNGYISTDVMREILAELDETLSSEDLDAMIDEIDHDGSGTVDFEEFMGVMT [A47H],1.96
21,ELREAFRDYDKEGNGYISTDVMREILAELDETLSSEDLDAMIDEIDADGSGTVDFEEFMGVMT [L8D],0.997

row,Variant,folding stability dG [kcal/mol]
1,ELREAFREYDKEGNGYISTDVMREILAELDETLSSEDLDAMIDEIDADGSGTVDFEEFMGVMT [L8E],1.52
2,ELREAFRLYDKEGNGYISTDVMREILAELDETLSSEDLDAMIDEIDAIGSGTVDFEEFMGVMT [D48I],1.24
3,ELREAFRLYDKEGNGYISTDVMREILAELDETLSSEDLDAMIDEIDAMGSGTVDFEEFMGVMT [D48M],1.33
4,ELREAFRLYDKEGNGYISTDVMREILAELDETLSSEDLDAMIDEIDADGSGTVDFEEFSGVMT [M59S],1.77
5,ELREAFRLYDKEGNGYISTDVMREILAELDETLSSEDLDAMIDEIDADGSGTVDLEEFMGVMT [F55L],1.66
6,ELREAFRLYDKEGNGYISTDVMREILAELDETLSSEDLDAMIDEIDADGSGTVDWEEFMGVMT [F55W],1.75
7,ELREAFRLYDKEGNGYISTDVMREILAELDETLSSEDLDAMIDEIDADGSGTVDEEEFMGVMT [F55E],1.33
8,ELREAFRLYDKEGNGYISTDVMREILAELDETLSIEDLDAMIDEIDADGSGTVDFEEFMGVMT [S35I],1.79
9,ELREAFRLYDKEGNGYISTDVMREILAELDETLSREDLDAMIDEIDADGSGTVDFEEFMGVMT [S35R],1.96
10,ELREAFRLYDKEGNGYISTDVMREILAELDETLSCEDLDAMIDEIDADGSGTVDFEEFMGVMT [S35C],1.64
11,ELREAFRLYDKEGNGYISTDVMREILAELDEFLSSEDLDAMIDEIDADGSGTVDFEEFMGVMT [T32F],1.62
12,ELREAFRLYDKEGNGYISTDVMCEILAELDETLSSEDLDAMIDEIDADGSGTVDFEEFMGVMT [R23C],0.094
13,ELREAFRLYDKEGNGYISTDVMREILAELDETLSSEDLDAMIDEIDADSSGTVDFEEFMGVMT [G49S],1.63
14,ELREVFRLYDKEGNGYISTDVMREILAELDETLSSEDLDAMIDEIDADGSGTVDFEEFMGVMT [A5V],2.6
15,ELREYFRLYDKEGNGYISTDVMREILAELDETLSSEDLDAMIDEIDADGSGTVDFEEFMGVMT [A5Y],2.59
16,ELREAFRLYDKEGNGYISTDVMREVLAELDETLSSEDLDAMIDEIDADGSGTVDFEEFMGVMT [I25V],1.31
17,ELREAFRLYDKEGNGYRSTDVMREILAELDETLSSEDLDAMIDEIDADGSGTVDFEEFMGVMT [I17R],-0.847
18,ELREAFRLYDKEGNGYISTDVMREILAELDETLSSEDLDAMIDEIDADGSGTKDFEEFMGVMT [V53K],-0.419
19,ELREAFRLYDKEGNGYISTDVMREILAELDETLSSEDLDAMIDEIDADGSGTRDFEEFMGVMT [V53R],-0.087
20,ELREAFRLYDKEGNGYISTDVMREILAELDETLSSEDLDAMIDEIDADGSGTLDFEEFMGVMT [V53L],1.58
21,ELREAFRLYDKEGNGYISTDVYREILAELDETLSSEDLDAMIDEIDADGSGTVDFEEFMGVMT [M22Y],0.295
